For the experiment, the target named is T1, IL-12β (purified alone) (human, UniProt P29460 23-328).
T1 construct: interleukin-12 subunit beta (IL-12β), human; The C-terminal His-tag has a TEV cleavage site and is separated by a GS linker, so residues may be left after cleavage; also called unlabeled IL-12β; source: ExpiCHO, transiently transfected, purified from supernatant (HisTrap, TEV, SEC); not shown: His-tag, C-terminal, cleaved
T1 sequence (looked up): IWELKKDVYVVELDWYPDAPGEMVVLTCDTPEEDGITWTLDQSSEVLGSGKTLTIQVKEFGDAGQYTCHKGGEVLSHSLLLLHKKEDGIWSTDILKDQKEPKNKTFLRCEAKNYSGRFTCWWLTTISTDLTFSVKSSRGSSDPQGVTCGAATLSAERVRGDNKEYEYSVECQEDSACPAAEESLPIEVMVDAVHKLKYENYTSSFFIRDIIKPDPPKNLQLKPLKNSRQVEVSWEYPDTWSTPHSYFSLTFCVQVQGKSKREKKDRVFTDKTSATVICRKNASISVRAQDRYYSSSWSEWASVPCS
As to the kind of experiment: NMR titration; 1H,15N HSQC of 15N-labelled IL-23α^VVS (100 μM) without and with a two-fold molar excess of unlabeled IL-12β; 10 mM KPi pH 7.5, 298 K. As to conditions: both partners purified.

B1: IL-23α^C14,22V,C54S (purified) (natural protein, human)
chain: RAVPGGSSPAWTQVQQLSQKLVTLAWSAHPLVGHMDLREEGDEETTNDVPHIQSGDGCDPQGLRDNSQFCLQRIHQGLIFYEKLLGSDIFTGEPSLLPDSPVGQLHASLLGLSQLLQPEGHHWETQQIPSLSPSQPWQRLLLRFKILRSLQAFVAVAARVFAHGAATLSP
notes: interleukin-23 subunit alpha (IL-23α), human; The His-tag has a TEV site and is separated by a 2x GS linker, so residues may be left after cleavage; The protein was 15N-labelled for NMR; The internal disulfide C58-C70 is formed; also called IL-23α^VVS; not shown: His-tag, N-terminal, cleaved
B1: the binding result is recorded as “binds”.

(Values after paper PMC6739322, “The molecular basis of chaperone-mediated interleukin 23 assembly control” (Nature Communications, 2019).)
